Substrate in series [1]: CO[C@H]1O[C@H](CO)[C@@H](O)[C@H](O)[C@H]1O
Description: purified protein. The series is classed as biochemical, Macropsalliota meleagris. The settings on record: electron donor, 0.2 mM ferrocenium, 50 mM Na phosphate pH 7.5, 30 °C.

Substrate in series [2]: O=C1C=CC(=O)C=C1
Put plainly: purified protein. The series is classed as biochemical, Macropsalliota meleagris. The settings on record: electron acceptor, 25 mM D-glucose, 100 mM Na acetate pH 4.0, 30 °C.

B1: AmPDH1 (Macropsalliota meleagris) (protein)
chain: AITYQHPDDLPSGVDYDFIVAGGGTAGLVVASRLSENSNWKVLVIEAGPSNKDAFVTRVPGLASTLGAGSPIDWNYTTIPQDGLDGRSLDYPRAKILGGCSTHNGMVYTRGSKDDWNSWAGIIGDQGLGWDSILPAIKKAEKFTQDFTDQSVKGHIDPSVHGFDGKLSVSAAYSNISFNDLLFETTKELNAEFPFKLDMNDGKPIGLGWTQYTIDNHAERSSSATSYLESTGDNVHVLVNTLVTRVLSASGNGTDFRKVEFAVDANSPKKQLEAKKEVIVAGGVIASPQILMNSGIGERKVLQAVGIDTLIDNPSVGKNLSDQGATSVMFDTTLPSTDFDVDAALTEWTNSHTGPLARGARLNHLTFVRLPDDKLNGQDPSSGKNSPHIEFQFAQITPQVPTLGVPKQAPLPAANSYRLLLQLAVVNLYSISRGSISLSDNNPFTYPLIDLNMFKEDIDIAILREGIRSAGRMFSSKAFKNSVNKFVYPPADATSDEDLDAFLRSSTFSYVHGVGTLSMSPKGASWGVVNPDFKVKGTSGLRVVDASVIPHAPAAHTQLPVYAFAEYASALIAKSYN
notes: full-length pdh1 (602 aa precursor) in pPICZB-His6, His6-tag kept, secreted from Pichia pastoris X33; N-glycosylated monomer, ~65 kDa deglycosylated; covalent FAD
Regarding B1, in “purified protein [1]”, the Km is 660 ± 50 µM, the turnover number (kcat) was found to be 41.5 ± 0.8 s⁻¹ and the kcat/Km amounted to 62900 M⁻¹ s⁻¹.

B2: AmPDH3 (Macropsalliota meleagris) (protein)
chain: AITYQHPDDLPSDVDYDFIVAGGGTAGLVVASRLSENPDWNILVIEAGPSNKDAPETRVPGLAGSLPASRTDWNYTTIPQDALGGRSLNYSRAKVLGGCSSHNSMVYTRGSKDDWNHWADITGDQGLSWDSILPVMKKAEKFSKDFSNQSVDGHIDPSMHGHDGLLSVVSSYTNVSFNDLLLETTKELSDEFPFKLDLNDGNPHGLAWTQYTIDHRAERSSSATSYLESTRDNVHVLVNSRVTRIFSAGNGTDFRSVEFAVDANSPKKVLTAKKEVILSAGVIASPQVLMNSGIGGREELQAIGVDTLIDNPSVGKNLSDQAATLLMFDTTLPNTDYDVAAALTEWEDSRSGPMAYGARLNHLTWVRLLDDKLNGSDPSSGKNSPHIEFQFMQISHQLPPADAPNQVKLPDPDSIGAVLLLAVVNLYSVSHGSIILNDNDPFANPMIDLNMFGDQKDIAILREGVRSARRMFSSQAFKDVVNGTVYPPADVTSDEDLDAFLRTSAISYWHGVGTLSMSPQNASWGVVDPDFRVKGTSGLRVVDASVIPYAPAGHTQVPVYTFAEHASVLIAKSYA
notes: full-length pdh3 (600 aa precursor) in pPICZB-His6, His6-tag kept, secreted from Pichia pastoris X33; strongly N-glycosylated, ~65 kDa deglycosylated; standard yellow form with covalent FAD
Consider B2, for which, in “purified protein [2]”, the Km was determined as 1880 ± 140 µM, the kcat was 3.57 ± 0.11 s⁻¹ and the specificity constant (kcat/Km) stood at 1890 M⁻¹ s⁻¹. Further, in the series “purified protein [1]”, the Michaelis constant (Km) is 950 ± 60 µM, the kcat was 1 ± 0.01 s⁻¹ and the catalytic efficiency (kcat/Km) turned out to be 1050 M⁻¹ s⁻¹.

B3: AmPDH2 (Macropsalliota meleagris) (protein)
chain: AITYQHPDDLPSGVDYDFIVAGGGTAGLVVASRLSENSKWNVLVIEAGPSNKDTPETRIPGLADNLPGTRTDWNYTTIPQDALGGRSLNYSRAKVLGGCSTHNGMVYTRGPRDDWNYWAEITDNQALKWDNVLPIMKNTEKFSQDFLDQSMEGHIDPSVHGFDGMLSVVASYTNVSFNNLLLETTRELSDEFPFKLDLNDGKPHGLAWTQYTIDQGAERSSSATSYLESTGDNVHVLVNTHVTRIVSAGNETDFRSVEFAVDANSPKKVLTAKKELILSAGVIASPQILMNSGIGGREELQAIGVDTLIDNPSVGRNLSDQASTLLMFDTTLPNTDYDVAAALTEWDNSRSGPMAYAARLNHLTWVRLPDDKLSGSDPSSGHDSPHIEFQFRQISHQLPPADVPNQVQLPDPDSIGVVLQFSVVNLYSISLGSVTLNNNDPFADPIIDLNMFGDQKDIAILREGVRSARRMFSSQAFKNVVHETVYPPAGVTSDEDLDAFLRTSAVSYLHGVGTLSMSPHSASWGVVNPDFRVKGTTGLRVVDASVIPRAPAGHTQIPVYTFAEHASALIADSYN
notes: full-length pdh2 (600 aa precursor) in pPICZB-His6, His6-tag kept, secreted from Pichia pastoris X33; N-glycosylated, ~65 kDa deglycosylated; covalent FAD
Consider B3, for which, in “purified protein [2]”, the Michaelis constant (Km) stood at 32.5 ± 1.9 µM, the kcat turned out to be 23.4 ± 0.5 s⁻¹ and the catalytic efficiency (kcat/Km) is 780000 M⁻¹ s⁻¹. Further, in the series “purified protein [1]”, the Km turned out to be 2000 ± 60 µM, the kcat was found to be 85 ± 0.6 s⁻¹ and the catalytic efficiency (kcat/Km) was determined as 42500 M⁻¹ s⁻¹.

For the origin of these results see PMC5352738, “Characterization of three pyranose dehydrogenase isoforms from the litter-decomposing basidiomycete Leucoagaricus meleagris (syn. Agaricus meleagris)” (Applied Microbiology and Biotechnology, 2016).
